Patent publication US20050282752A1

Experiments:
[1] = biological target: biotinylated human IL-1RI (human) (UniProt P14778); assay: IGEN (ECL) competition, inhibition of IL-1 signaling complex formation; concentrated stock; details: ligand
[2] = biological target: biotinylated human IL-1RI (human) (UniProt P14778); assay: IGEN (ECL) competition, inhibition of IL-1 signaling complex formation; details: ligand

biotinylated human IL-1RI (human), sequence (P14778 18-336): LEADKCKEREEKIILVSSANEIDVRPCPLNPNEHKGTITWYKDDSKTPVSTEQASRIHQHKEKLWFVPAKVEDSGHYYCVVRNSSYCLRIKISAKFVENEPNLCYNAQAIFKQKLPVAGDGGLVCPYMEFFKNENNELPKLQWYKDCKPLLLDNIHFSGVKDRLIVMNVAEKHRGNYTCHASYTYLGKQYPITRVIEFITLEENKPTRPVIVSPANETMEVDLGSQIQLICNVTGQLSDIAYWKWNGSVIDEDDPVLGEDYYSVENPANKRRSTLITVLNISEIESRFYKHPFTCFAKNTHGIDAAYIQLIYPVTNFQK

## IL-1ra K93A mutant protein (from UniProt P18510 26-177)
[1]
  EC50: 873 pM
[2]
  EC50: 562 pM
